From patent US20190161551A1 (Regeneron, published 2019)

B1: human brain derived neurotrophic factor (ligand, UniProt P23560 129-247, looked up)
chain: HSDPARRGELSVCDSISEWVTAADKKTAVDMSGGTVTVLEKVPVSKGQLKQYFYETKCNPMGYTKEGCRGIDKRHWNSQCRTTQSYVRALTMDSKKRIGWRFIRIDTSCVCTLTIKRGR
B3: rat TrkB extracellular domain expressed with a C-terminal myc-myc-hexahistidine tag (receptor)
chain: CPMSCKCSTTRIWCTEPSPGIVAFPRLEPNSIDPENITEILIANQKRLEIINEDDVEAYVGLKNLTIVDSGLKFVAYKAFLKNGNLRHINFTRNKLTSLSRRHFRHLDLSDLILTGNPFTCSCDIMWLKTLQETKSSPDTQDLYCLNESSKNTPLANLQIPNCGLPSARLAAPNLTVEEGKSVTISCSVGGDPLPTLYWDVGNLVSKHMNETSHTQGSLRITNISSDDSGKQISCVAENLVGEDQDSVNLTVHFAPTITFLESPTSDHHWCIPFTVRGNPKPALQWFYNGAILNESKYICTKIHVTNHTEYHGCLQLDNPTHMNNGDYTLMAKNEYGKDERQISAHFMGRPGVDYETNPNYPEVLYEDWTTPTDIGDTTNKSNEIPSTDVADQTNREHEQKLISEEDLGGEQKLISEEDLHHHHHH
notes: also called rTrkB.mmH; rTRKB.mmH

Legend:
[1] = target: T1, mouse TrkB extracellular domain fused to the transmembrane and cytoplasmic domains of human TrkB, expressed … (mouse; human, UniProt Q16620 431-822, limits assumed); test: cell-based or functional assay
[2] = target: T2, human TrkB expressed on HEK293/SRE-Luc/hTrkB cells (human, UniProt Q16620 32-822); test: cell-based or functional assay
[3] = target: T1, mouse TrkB extracellular domain fused …; test: cell-based or functional assay; remark: listed apart in the source
[4] = target: T2, human TrkB expressed on …; test: cell-based or functional assay; remark: listed apart in the source
mouse TrkB.hFc [5] = target: T3, mouse TrkB.hFc (mouse); test: BLI Octet, captured mTrkB.hFc, 300 nM mAb, no ligand
T3 construct: also called mTrkB.hFc; mTrkB-hFc
Description: (§1) Blocking of anti-human TrkB or anti-mouse TrkB antibodies from binding to TrkB by BDNF or NT-4 was evaluated using a real-time bio-layer interferometry (BLI) based Octet HTX instrument. The entire study was performed in 10 mM HEPES pH 7.4, 300 mM NaCl, 3 mM EDTA, 1 mg/mL BSA, 0.02% NaN3 and 0.05% v/v Surfactant Tween-20 (HBS-EBT running buffer) at 25° C. All the samples were dispensed in a 384 tilted well plate and the plate was placed on the orbital shaker with the shake speed of 1000 rpm. hTrkB.mFc was captured on anti-mFc (AMC) Octet sensors while hTrkB.hFc or mTrkB.hFc were captured on anti-hFc (AHC) Octet sensors by dipping in wells containing 10 μg/mL of TrkB reagents for 2 minutes. hTrkB.mFc or hTrkB.hFc captured Octet biosensors were saturated by dipping in wells containing 20 nM of BDNF, hNT-4, or mNT-4 for 2 minutes followed by dipping Octet biosensors in wells containing 300 nM of different TrkB mAbs for 4 minutes. Binding of TrkB mAbs to the complex of TrkB and BDNF, hNT-4, or mNT-4 was determined using Scrubber 2.0c analysis software.

mouse TrkB.hFc [6] = target: T3, mouse TrkB.hFc; test: BLI Octet, captured mTrkB.hFc, 300 nM mAb (BDNF run)
Description: (§2) Blocking of BDNF or NT-4 from binding to TrkB by anti-human TrkB or anti-mouse TrkB antibodies was evaluated using a real-time bio-layer interferometry (BLI) based Octet HTX instrument. The entire study was performed in 10 mM HEPES pH 7.4, 300 mM NaCl, 3 mM EDTA, 1 mg/mL BSA, 0.02% NaN3 and 0.05% v/v Surfactant Tween-20 (HBS-EBT running buffer) at 25° C. All the samples were dispensed in a 384 tilted well plate and the plate was placed on the orbital shaker with the shake speed of 1000 rpm. hTrkB.mFc was captured on anti-mFc (AMC) Octet sensors while hTrkB.hFc or mTrkB.hFc were captured on anti-hFc (AHC) Octet sensors by dipping in wells containing 10 μg/mL of TrkB reagents for 2 minutes. hTrkB.mFc or hTrkB.hFc captured Octet biosensors were saturated by dipping in wells containing 300 nM of different TrkB mAbs for 4 minutes followed by dipping Octet biosensors in wells containing 20 nM of BDNF, hNT-4, or mNT-4 for 2 minutes. Binding of BDNF, hNT-4, or mNT-4 to the complex of TrkB and different TrkB mAbs was determined using Scrubber 2.0c analysis software.

mouse TrkB.hFc [7] = target: T3, mouse TrkB.hFc; test: BLI Octet, captured mTrkB.hFc saturated with mNT-4, 300 nM mAb
Description: as §1

[8] = target: T4, human TrkB extracellular domain expressed with a C-terminal myc-myc-hexahistidine tag (human, UniProt Q16620 32-430); test: SPR Biacore T200, mAb captured (anti-mFc), 25C
T4 construct: also called hTrkB.mmH; hTRKB.mmH
Description: (§3) Equilibrium dissociation constants (KD values) for TrkB binding to purified anti-TrkB monoclonal antibodies were determined using a real-time surface plasmon resonance biosensor using a Biacore T200 instrument. All binding studies were performed in 10 mM Hepes pH 7.4, 150 mM NaCl, 3 mM EDTA, and 0.05% v/v Surfactant Tween-20 (HBS-ET running buffer) at 25° C. The Biacore sensor surface was first derivatized by amine coupling with rabbit anti-mouse Fc polyclonal antibody (GE Healthcare #BR-1008-38) to capture anti-TrkB monoclonal antibodies. Binding studies were performed on the following TrkB reagents; human TrkB extracellular domain expressed with a C-terminal myc-myc-hexahistidine tag (hTrkB.mmH; SEQ ID NO: 76; NP_001018074.1), mouse TrkB extracellular domain expressed with a C-terminal myc-myc-hexahistidine tag (mTRKB.mmH; SEQ ID NO: 79; NP_001020245), and rat TrkB extracellular domain expressed with a C-terminal myc-myc-hexahistidine tag (rTRKB.mmH; SEQ ID NO: 84; XP_002721319.1). […] Kinetic association (kₐ) and dissociation (kd) rate constants were determined by fitting the real-time binding sensorgrams to a 1:1 binding model with mass transport limitation using Scrubber 2.0c curve-fitting software. Binding dissociation equilibrium constants (KD) and dissociative half-lives (t½) were calculated from the kinetic rate constants as: […]

[9] = target: B3; test: SPR Biacore T200, mAb captured (anti-mFc), 25C
Description: as §3

[10] = target: T5, mouse TrkB extracellular domain expressed with a C-terminal myc-myc-hexahistidine tag (mouse, UniProt P15209 32-429); test: SPR Biacore T200, mAb captured (anti-mFc), 25C
T5 construct: also called mTrkB.mmH; mTRKB.mmH
Description: as §3

mouse TrkB.hFc [11] = target: T3, mouse TrkB.hFc; test: BLI Octet, captured mTrkB.hFc, 300 nM mAb (NT-4 run)
Description: as §2

mouse TrkB.hFc [12] = target: T3, mouse TrkB.hFc; test: BLI Octet, captured mTrkB.hFc saturated with BDNF, 300 nM mAb
Description: as §1

[13] = target: B3; test: blocking ELISA, rat TrkB.mmh pre-mixed with mAb, plate-coated BDNF
Description: (§4) Experiments were carried out using the following procedure. Human BDNF was coated at a concentration of 0.5 μg/mL (for blocking mouse TrkB.hFc interaction) or 0.3 μg/mL (for blocking rat TrkB.mmh interaction) in PBS on 96-well microtiter plate and incubated overnight at 4° C. […] In a 96-well dilution plate, 850 pM mouse TrkB.hFc or rat TrkB.mmh was mixed with the three-fold serially diluted anti-mouse TrkB antibodies and control antibody. The final antibody concentrations ranged from 1.69 pM to 100 nM. The protein-antibody mix was incubated at room temperature (RT) for 1 hour. The pre-bound mix was then transferred in duplicates to microtiter plates coated with BDNF. A control containing assay buffer alone was included to calculate the baseline of the assay. The ELISA plates were incubated at RT for 1 hour and then washed with plate washing solution. Plate-bound mouse TrkB.hFc was detected with HRP-conjugated goat anti-human Fcγ fragment specific antibody (Jackson Immunoresearch) and rat TrkB.mmh was detected with HRP-conjugated anti-histidine antibody (Qiagen). The plates were incubated with detection antibody for 1 hour at RT and then washed with plate washing solution. The assay plates were developed with TMB colorimetric substrates according to the manufacturer's recommended procedure.
(§5) The absorbance at 450 nm for each well was recorded and plotted as a function of the concentration of antibody. Data was analyzed in GraphPad Prism software using a four-parameter logistic equation over an 11-point dose response curve and IC₅₀ values were calculated. […] Percent blockade at maximum concentration of the antibody tested was calculated as an indicator of the ability of the antibodies to block the binding of TrkB to BDNF on the plate relative to the baseline of the assay. Binding signal of 850 pM mouse or rat TrkB in absence of the antibody was defined as 100% binding or 0% blocking. The baseline signal of assay buffer alone was defined as 0% binding or 100% blocking.

mouse TrkB.hFc [14] = target: T3, mouse TrkB.hFc; test: blocking ELISA, mouse TrkB.hFc pre-mixed with mAb, plate-coated BDNF
Description: as §4, §5

[15] = target: B1; test: ELISA, dose-response of TrkB on plate-coated BDNF
Excerpt: FIG. 5. Consists of FIG. 5A and FIG. 5B which show the ability of anti-mouse TrkB monoclonal antibodies to block interaction between mouse or rat TrkB and its ligand BDNF (Brain Derived Neurotrophic Factor). ELISA-based methods were used to assess the binding of (FIG. 5A with two graphs) mouse TrkB.hFc and (FIG. 5B with two graphs) rat TrkB.mmh to plate coated BDNF in presence of a range of concentrations of Anti-mouse TrkB and isotype control mAbs. […] Molarity (M) indicates antibody concentration for mAbs. Error bars represent Standard Deviation.
(§6) Experiments were carried out using the following procedure. Human BDNF was coated at a concentration of 0.5 μg/mL (for blocking mouse TrkB.hFc interaction) or 0.3 μg/mL (for blocking rat TrkB.mmh interaction) in PBS on 96-well microtiter plate and incubated overnight at 4° C. […] In a 96-well dilution plate, 850 pM mouse TrkB.hFc or rat TrkB.mmh was mixed with the three-fold serially diluted anti-mouse TrkB antibodies and control antibody. The final antibody concentrations ranged from 1.69 pM to 100 nM. The protein-antibody mix was incubated at room temperature (RT) for 1 hour. […] Plate-bound mouse TrkB.hFc was detected with HRP-conjugated goat anti-human Fcγ fragment specific antibody (Jackson Immunoresearch) and rat TrkB.mmh was detected with HRP-conjugated anti-histidine antibody (Qiagen). […]

[16] = target: B1; test: ELISA: dose curve of rat TrkB.mmh binding to plate-coated BDNF, absorbance 450 nm
Description: as §6, with “hour. The pre-bound mix was then transferred in duplicates to microtiter plates coated with BDNF.” for “hour.”
The absorbance at 450 nm for each well was recorded and plotted as a function of the concentration of antibody. Data was analyzed in GraphPad Prism software using a four-parameter logistic equation over an 11-point dose response curve and IC₅₀ values were calculated. […] Percent blockade at maximum concentration of the antibody tested was calculated as an indicator of the ability of the antibodies to block the binding of TrkB to BDNF on the plate relative to the baseline of the assay. […]

T3 sequence (chain, as listed by the source limits assumed): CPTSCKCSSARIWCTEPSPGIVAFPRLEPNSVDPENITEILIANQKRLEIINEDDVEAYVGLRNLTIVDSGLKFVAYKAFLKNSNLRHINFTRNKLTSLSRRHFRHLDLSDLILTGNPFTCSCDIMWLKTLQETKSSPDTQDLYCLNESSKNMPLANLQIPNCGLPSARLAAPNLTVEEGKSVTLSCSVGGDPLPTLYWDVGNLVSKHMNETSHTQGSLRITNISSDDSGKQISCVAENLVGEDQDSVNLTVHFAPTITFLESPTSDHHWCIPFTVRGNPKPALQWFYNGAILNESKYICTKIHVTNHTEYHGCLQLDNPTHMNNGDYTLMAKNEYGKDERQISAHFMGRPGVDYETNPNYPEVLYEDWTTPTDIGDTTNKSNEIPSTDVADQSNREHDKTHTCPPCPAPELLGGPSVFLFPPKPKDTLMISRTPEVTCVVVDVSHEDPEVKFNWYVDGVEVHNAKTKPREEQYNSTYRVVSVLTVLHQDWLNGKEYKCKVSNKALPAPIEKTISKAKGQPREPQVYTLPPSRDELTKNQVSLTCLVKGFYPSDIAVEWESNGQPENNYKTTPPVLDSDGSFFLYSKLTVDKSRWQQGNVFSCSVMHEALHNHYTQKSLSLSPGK
T2 sequence (Q16620 32-822): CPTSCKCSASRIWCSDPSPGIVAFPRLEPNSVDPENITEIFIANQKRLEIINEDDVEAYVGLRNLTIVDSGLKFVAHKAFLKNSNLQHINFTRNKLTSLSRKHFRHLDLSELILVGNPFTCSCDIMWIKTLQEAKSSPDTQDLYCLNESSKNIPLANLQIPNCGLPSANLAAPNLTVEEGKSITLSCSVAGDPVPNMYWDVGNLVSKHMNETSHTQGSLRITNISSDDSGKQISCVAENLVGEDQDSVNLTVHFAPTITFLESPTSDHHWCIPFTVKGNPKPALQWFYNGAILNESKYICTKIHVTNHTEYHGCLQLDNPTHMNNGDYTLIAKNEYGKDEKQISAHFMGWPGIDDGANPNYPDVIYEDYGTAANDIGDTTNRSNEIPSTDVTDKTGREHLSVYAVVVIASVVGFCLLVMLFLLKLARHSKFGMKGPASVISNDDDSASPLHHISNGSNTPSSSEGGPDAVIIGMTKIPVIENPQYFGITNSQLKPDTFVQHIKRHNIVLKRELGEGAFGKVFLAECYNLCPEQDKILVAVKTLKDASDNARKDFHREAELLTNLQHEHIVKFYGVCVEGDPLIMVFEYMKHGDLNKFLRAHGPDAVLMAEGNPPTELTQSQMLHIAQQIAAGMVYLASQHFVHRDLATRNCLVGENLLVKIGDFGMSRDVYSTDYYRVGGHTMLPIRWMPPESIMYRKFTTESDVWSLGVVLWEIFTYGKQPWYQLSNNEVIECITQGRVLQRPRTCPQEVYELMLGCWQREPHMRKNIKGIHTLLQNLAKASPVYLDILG
T1 sequence (Q16620 other isoform, or with tags, fused parts or gaps limits assumed, form in doubt): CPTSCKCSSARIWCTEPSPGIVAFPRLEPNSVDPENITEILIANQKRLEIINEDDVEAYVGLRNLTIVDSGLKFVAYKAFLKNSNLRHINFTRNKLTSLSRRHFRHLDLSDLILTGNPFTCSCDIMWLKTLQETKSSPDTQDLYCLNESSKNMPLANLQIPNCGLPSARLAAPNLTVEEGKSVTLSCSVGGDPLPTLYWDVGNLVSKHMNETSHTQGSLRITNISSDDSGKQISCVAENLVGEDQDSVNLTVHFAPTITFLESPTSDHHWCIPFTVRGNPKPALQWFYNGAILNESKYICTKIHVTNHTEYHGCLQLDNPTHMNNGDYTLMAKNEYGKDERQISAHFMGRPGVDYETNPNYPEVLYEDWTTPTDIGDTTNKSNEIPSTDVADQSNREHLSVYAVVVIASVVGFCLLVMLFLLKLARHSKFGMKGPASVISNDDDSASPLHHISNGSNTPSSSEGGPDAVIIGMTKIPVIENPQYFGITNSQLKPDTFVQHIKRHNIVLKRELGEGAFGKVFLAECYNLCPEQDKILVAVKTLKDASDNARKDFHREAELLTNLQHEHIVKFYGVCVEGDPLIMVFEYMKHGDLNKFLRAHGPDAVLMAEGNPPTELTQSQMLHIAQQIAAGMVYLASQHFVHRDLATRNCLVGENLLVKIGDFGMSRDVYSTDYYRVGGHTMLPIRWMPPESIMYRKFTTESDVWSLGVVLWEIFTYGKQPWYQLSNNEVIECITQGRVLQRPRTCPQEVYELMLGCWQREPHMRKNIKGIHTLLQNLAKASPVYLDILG

## B1
[1]
  BDNF EC50 (M), SRE-luciferase (run of the 100 pM BDNF columns): 1.1e-10 M
  BDNF EC50 (M), SRE-luciferase (run of the No BDNF columns): 7.4e-11 M
[2]
  BDNF EC50 (M), SRE-luciferase (run of the 100 pM BDNF columns): 1e-10 M
  BDNF EC50 (M), SRE-luciferase (run of the No BDNF columns): 1.3e-10 M
[3]
  BDNF EC50 (M), SRE-luciferase: 7.4e-11 M
[4]
  BDNF EC50 (M), SRE-luciferase: 1e-10 M

B2: M2aM14178N (antibody, mouse IgG2a, V domains shown)
VH: EVQLVESGGGLVKPGGSLKLSCTASGFTFSSYAMSWVRQTPEKRLEWVANISDGGTYTYYPDNIKGRFTISRDNAKNNLYLQMSHLESEDTAMYYCIRGDVYYVRFAYWGQGTLVTVSA
VL: QAVVTQESALTTSPGETVTLTCRSSTGAVTSSNHANWVQEKPDHLFTGLIGGTNNRAPGVPARFSGSLIGDKAALTITGAQTEDEAIYFCALWHSNHWVFGGGTKLTVLG
notes: Anti-mouse TrkB antibody from hybridoma, mouse IgG2a Fc; also called surrogate anti-mouse TrkB antibody
Mouse TrkB.hFc [5]
  antibody Binding (nm): 0.47 nm
Mouse TrkB.hFc [6]
  mAb Binding (nm): 0.47 nm
Mouse TrkB.hFc [7]
  antibody Binding (nm): 0.41 nm
[8]
  90nM hTrkB.mmH Bound (RU): -1 RU
[9]
  90 nM rTrkB.mmH Bound (RU): 11 RU
  Kd: 2.56 nM
  koff: 0.00023 s⁻¹
  kon: 90000 M⁻¹ s⁻¹
  t½: 50 min
[10]
  90 nM TrkB.mmH Bound (RU): 12 RU
  Kd: 2.39 nM
  koff: 0.000247 s⁻¹
  kon: 103000 M⁻¹ s⁻¹
  t½: 47 min
Mouse TrkB.hFc [11]
  mAb Binding (nm): 0.47 nm
Mouse TrkB.hFc [12]
  antibody Binding (nm): 0.35 nm
[1]
  Activation (%), SRE-luciferase, 100 pM BDNF: 67%
  Activation (%), SRE-luciferase, No BDNF: 76%
  EC50 (M), SRE-luciferase, 100 pM BDNF: 1e-10 M
  EC50 (M), SRE-luciferase, No BDNF: 1.9e-10 M
[2]
  Activation (%), SRE-luciferase, 100 pM BDNF: 52%
  Activation (%), SRE-luciferase, No BDNF: 0%
[13]
  % Blockade with 100 nM antibody: 89.5%
  IC50: 0.184 nM
Mouse TrkB.hFc [14]
  % Blockade with 100 nM antibody: 84.4%
  IC50: 0.426 nM

## B3
[15]
  EC50: 2.2 nM
[16]
  EC50: 2.22 nM
